IC50 data for five molecules are collected here from patent publication US20060035332.

The target of assay [1] is human OT7T022 receptor (human). The assay can be described thus: competition, 125I-Tyr-hRFRP-3(8), pH 7.5, room temperature. Conditions: modification not given.
In assay [2] the target is human OT7T022 receptor (human). As to the kind of experiment: competition. The note with it: modification not given.

Chain of human OT7T022 receptor (human) (chain, as listed by the source): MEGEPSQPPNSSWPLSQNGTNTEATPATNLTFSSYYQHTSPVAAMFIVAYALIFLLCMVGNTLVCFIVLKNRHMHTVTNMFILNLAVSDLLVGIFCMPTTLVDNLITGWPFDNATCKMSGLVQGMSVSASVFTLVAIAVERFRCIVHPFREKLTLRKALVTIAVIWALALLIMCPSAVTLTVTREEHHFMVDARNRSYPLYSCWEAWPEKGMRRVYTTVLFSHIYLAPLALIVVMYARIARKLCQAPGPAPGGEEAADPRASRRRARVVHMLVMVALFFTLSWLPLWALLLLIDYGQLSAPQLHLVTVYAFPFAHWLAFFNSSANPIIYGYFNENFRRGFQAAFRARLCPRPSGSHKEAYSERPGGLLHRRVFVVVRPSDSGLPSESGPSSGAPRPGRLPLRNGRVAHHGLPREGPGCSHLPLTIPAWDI

B1: hRFRP-3(28) (peptide)
chain: ATANLPLRSGRNMEVSLVRRVPNLPQRF
Usually IC50 stands for the concentration at which inhibition is half-maximal. A lower IC50 goes with greater potency in that assay. For B1, the IC50 in assay [1] is 1.1 nM.

B2: hRFRP-3(31) (peptide)
chain: SAGATANLPLRSGRNMEVSLVRRVPNLPQRF
In turn, B2 gave an IC50 in assay [1] of 1.3 nM.

B3: hRFRP-3(6) (peptide)
chain: NLPQRF
With B3, in assay [2], the concentration for half-maximal inhibition (IC50) was found to be 2.6 nM. This lies in the single-digit nanomolar range.

B4: hRFRP-3(7) (peptide)
chain: PNLPQRF
Turning to B4, the 50% inhibitory concentration (IC50) in assay [2] came out at 0.62 nM.

B5: hRFRP-3(5) (peptide)
chain: LPQRF
In the case of B5, the IC50 in assay [1] was determined as 2.1 nM.
